One test has as its target HLA-A2 MHC class I molecule (human). Put plainly: T2 binding assay, surface HLA-A2 by flow cytometry. On the procedure:
Binding affinity to HLA-A2 of synthetic peptides derived from the XAGE-1 amino acid sequence was measured by using T2 cells. The T2 cell line is a T-B fusion hybridoma cell line deficient in TAP1 and TAP2 gene expression available from the ATCC under accession number CRL-1992. T2 cells suspended in Dulbecco's modified Eagles' medium (DMEM) containing 2.5% fetal calf serum (FCS) were incubated overnight with different concentrations of the peptides and 10 μg/ml of β2-microglobulin. The cells were washed twice with phosphate buffered saline (PBS) containing 2% FCS and incubated on ice with anti-HLA-A2 monoclonal antibody (BB7.2, produced by ATCC cell line HB-82) for 30 min. After a single wash, the cells were stained with FITC-labeled goat anti-mouse Ig antibody for 30 min on ice. The cells were washed twice, and expression of HLA-A2 was measured by flow cytometry. The expression level of HLA-A2 was determined as follows: mean fluorescent index (F.I.)=(mean fluorescent intensity of the sample with peptide−mean fluorescent intensity of the sample without peptide)/mean fluorescent intensity of the sample without peptide; mean fluorescent intensity=geometric mean fluorescent intensity of the sample stained with both 1st and 2nd antibody−geometric mean fluorescent intensity of the sample stained with 2nd antibody alone.
A series of peptides derived from xage-1 14 were discovered with enhanced binding to HLA-A2.
In general terms: Flow cytometry measures light scatter and fluorescence of single cells or particles in a stream.
In the case of GVMPSAPSPV [3M xage-1 14], the FI50 came out at 0.28 µM. For the molecule GLFPSAPSPV [2L xage-1 14], the FI50 was 1.86 µM. With YLFPSAPSPV [1Y2L xage-1 14], the FI50 amounted to 3.04 µM.

Molecule YVFPSAPSPV [1Y xage-1 14] showed an FI50 of 2.36 µM. Molecule GLMPSAPSPV [2L3M xage-1 14] displayed an FI50 of 0.62 µM.

For another test the target is unchanged. Put plainly: T2 binding assay, surface HLA-A2 by flow cytometry (BB7.2).
HTASPRSPVM (Synthetic 10-mer) [xage-1 57 peptide]: the F.I.50 is over 50 µM.

On to ATRVPEVWIL (Synthetic 10-mer) [xage-1 33 peptide], for which the F.I.50 was over 50 µM.

Source of the values: US20130171178A1 (US Dept. of Health and Human Services, published 2013).
